# Experimental data taken from patent US12692310B2, “ASIC1 channel antagonist antibody” (ShanghaiTech University, priority 2019, dated 2026).
# Where a chain is given by its changes, count along the chain named.
# T1: hASIC1a Y318A (Homo sapiens, UniProt P78348, Y318A)
# T1 construct: expressed in transfected cells; host or cells: CHO-K1, transient
# T1 sequence (P78348 1-528 Y318A): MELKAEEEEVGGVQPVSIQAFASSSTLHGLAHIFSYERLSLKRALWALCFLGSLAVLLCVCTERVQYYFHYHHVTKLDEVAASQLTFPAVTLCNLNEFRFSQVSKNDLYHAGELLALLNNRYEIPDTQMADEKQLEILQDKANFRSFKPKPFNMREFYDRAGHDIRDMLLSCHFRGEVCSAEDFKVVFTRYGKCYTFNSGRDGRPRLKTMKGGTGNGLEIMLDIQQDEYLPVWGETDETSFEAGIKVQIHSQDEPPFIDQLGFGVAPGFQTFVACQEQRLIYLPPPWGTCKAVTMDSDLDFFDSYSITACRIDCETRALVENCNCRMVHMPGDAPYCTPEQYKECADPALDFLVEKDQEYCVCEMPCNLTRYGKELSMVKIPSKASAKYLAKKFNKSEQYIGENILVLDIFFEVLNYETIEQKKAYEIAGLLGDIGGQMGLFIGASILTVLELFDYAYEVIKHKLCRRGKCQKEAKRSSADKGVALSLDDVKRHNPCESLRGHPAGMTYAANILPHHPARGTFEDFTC
# T2: hASIC1a Y360A (Homo sapiens, UniProt P78348, Y360A)
# T2 construct: expressed in transfected cells; host or cells: CHO-K1, transient
# T2 sequence (P78348 1-528 Y360A): T1 sequence (P78348 1-528 Y318A) with A318Y, Y360A
# T3: hASIC1a N322A (Homo sapiens, UniProt P78348, N322A)
# T3 construct: expressed in transfected cells; host or cells: CHO-K1, transient
# T3 sequence (P78348 1-528 N322A): T1 sequence (P78348 1-528 Y318A) with A318Y, N322A
# B1: ASC06-IgG1: ASC06 antibody converted into a full length IgG1 form (antibody, V domains shown)
# VH: QVQLQQSGGGLVQPGGSLRLSCAASGFTFSSYAMSWVRQAPGKGLEWVSAISGSGGSTYYADSVKGRFTISRDNSKNTLYLQMNSLRAEDTAVYYCAKDSFYGYSKGDWGQGTLVTVSS
# VL: QSALTQPASVSGSPGQSITISCTGTSSDVGAYNYVSWYQQQPGKAPKLMIYGVSNRPSGVSNRFSGSKSGNAASLTISGLQAEDEADYYCSSYTSSSTYVFGTGTKLTVLG
# Key:
# hASIC1a F252A = assay: FACS binding to alanine mutant hASIC1a-eYFP on CHO-K1 cells; format: cell-based, human; details: vs WT hASIC1a
# Procedure: (§1) To confirm the role of these amino acids, alanine mutagenesis was performed and four amino acids are very important for antibody binding were identified. Plasmid encoding single amino acid mutation of hASIC1a-eYFP was constructed and transient transfected into CHO-K1 cells. FACS binding assay was then performed to test whether the ASC06-IgG1 still binds to cell surface expressing mutated hASIC1a.
# [1] = test system: hASIC1a-eYFP stable cells (6H7); assay: Acidosis-induced cell death, CCK8 and LDH release; format: cell-based
# Procedure: Acidosis-Induced Cell Death. The hASIC1a-eYFP stable cells (6H7) and CHO-K1 cells were seeded in a 96-well plate at a density of 10,000 cells per well 1 d before treatment. ECF solutions at pH 5.5, 6.0, and 7.4 were used to treat the cells at 37° C. for 6 h. To test the rescuing effect of ASC06-IgG1, the antibody was dissolved in an acidic ECF (pH 5.5) to make the final antibody concentrations of 0, 50, 100, 300, 500, and 1,000 nM. The 6H7 cells were first preincubated with the antibody at the corresponding concentrations at 37° C. for 30 min in cell media. After replacing the cell media with the corresponding acidic ECFs, the cells were incubated at 37° C. for 6 h, washed with a PBS buffer (pH 7.4), and then cultured in a 1% FBS DMEM/F-12K media overnight. The supernatants of the overnight culture were collected for the LDH release measurement using a LDH Assay kit (#88953; Thermo Fisher Scientific). The cells viability was determined using the CCK-8 assay kit (#CK04; Dojindo).
# Extracellular acidosis in stroke or ischemia-reperfusion injury is known to induce the activation of ASIC1a channels, which leads to neuronal death in the central nervous system, most likely through transient increase of intracellular calcium and related cell signaling mediated by ASIC1a. The survival of hASIC1a overexpressing stable cells was assessed by measuring the enzymatic activities of cytoplasmic dehydrogenases (CCK8 assay) and the concentrations of lactate dehydrogenase (LDH) secreted into the cell media, which reflect the cell viability and cytotoxicity, respectively. […] In the presence of […] ASC06-IgG1, approximately 45% of the ASIC1a expressing stable cells survived at pH 5.5 comparing to about a 5% survival rate in the absence of the antibody. Consistent with CCK8 result, the concentration of LDH released into cell media decreased after the addition of ASC06-IgG1 is also in a dose-dependent manner (FIG. 7D).
# hASIC1a Y318A = target: T1, hASIC1a Y318A; assay: FACS binding to alanine mutant hASIC1a-eYFP on CHO-K1 cells; format: cell-based; details: vs WT hASIC1a
# Procedure: as §1
# hASIC1a Y360A = target: T2, hASIC1a Y360A; assay: as above; format: cell-based; details: vs WT hASIC1a
# Procedure: as §1
# hASIC1a N322A = target: T3, hASIC1a N322A; assay: as above; format: cell-based; details: vs WT hASIC1a
# Procedure: as §1
molecule,measurement,setting,value
B1,binding to hASIC1a F252A mutation,hASIC1a F252A,so does
same,survival of ASIC1a expressing stable cells,"[1]; 1,000 nM antibody, pH 5.5, CCK8",approximately 45%
same,"protective effect against acidosis-induced cell death, in words",[1]; pH 5.5,significant dose-dependent protective effect
same,concentration of LDH released into cell media,"[1]; pH 5.5, dose-dependent",decreased
same,binding to hASIC1a Y318A mutation,hASIC1a Y318A,abolished
same,binding to hASIC1a Y360A mutation,hASIC1a Y360A,decrease
same,binding to hASIC1a N322A mutation,hASIC1a N322A,decrease
